Holding throughout (format): functional, cell membranes
Holding throughout (details): Membrane vesicle

Substrate in data set [1]: C[C@]12CC[C@@H]3c4ccc(O)cc4CC[C@H]3[C@@H]1CC[C@@H]2O[C@@H]1O[C@H](C(=O)O)[C@@H](O)[C@H](O)[C@H]1O
Description: (§1) TP_TRANSPORTER: uptake in membrane vesicles from MRP3-expressing HEK293 cells.

Substrate in data set [2]: C[C@H](CCC(=O)NCC(=O)O)[C@H]1CC[C@H]2[C@@H]3[C@H](O)C[C@@H]4C[C@H](O)CC[C@]4(C)[C@H]3C[C@H](O)[C@]12C
The description is as §1.

Substrate in data set [3]: CN(Cc1cnc2nc(N)nc(N)c2n1)c1ccc(C(=O)N[C@@H](CCC(=O)O)C(=O)O)cc1
Described as §1.

Substrate in data set [4]: N[C@@H](CCC(=O)N[C@H](CSc1ccc([N+](=O)[O-])cc1[N+](=O)[O-])C(=O)NCC(=O)O)C(=O)O
The data set is described as §1.

Substrate in data set [5]: CCCCC/C=C\C/C=C\C=C\C=C\[C@@H](SC[C@@H](NC(=O)CC[C@H](N)C(=O)O)C(=O)NCC(=O)O)[C@@H](O)CCCC(=O)O
The description is as §1.

B1: Multidrug resistance associated protein (Homo sapiens), Q96QA9 (protein)
chain: MDALCGSGELGSKFWDSNLSVHTENPDLTPCFQNSLLAWVPCIYLWVALPCYLLYLRHHCRGYIILSHLSKLKMVLGVLLWCVSWADLFYSFHGLVHGRAPAPVFFVTPLVVGVTMLLATLLIQYERLQGVQSSGVLIIFWFLCVVCAIVPFRSKILLAKAEGEISDPFRFTTFYIHFALVLSALILACFREKPPFFSAKNVDPNPYPETSAGFLSRLFFWWFTKMAIYGYRHPLEEKDLWSLKEEDRSQMVVQQLLEAWRKQEKQTARHKASAAPGKNASGEDEVLLGARPRPRKPSFLKALLATFGSSFLISACFKLIQDLLSFINPQLLSILIRFISNPMAPSWWGFLVAGLMFLCSMMQSLILQHYYHYIFVTGVKFRTGIMGVIYRKALVITNSVKRASTVGEIVNLMSVDAQRFMDLAPFLNLLWSAPLQIILAIYFLWQNLGPSVLAGVAFMVLLIPLNGAVAVKMRAFQVKQMKLKDSRIKLMSEILNGIKVLKLYAWEPSFLKQVEGIRQGELQLLRTAAYLHTTTTFTWMCSPFLVTLITLWVYVYVDPNNVLDAEKAFVSVSLFNILRLPLNMLPQLISNLTQASVSLKRIQQFLSQEELDPQSVERKTISPGYAITIHSGTFTWAQDLPPTLHSLDIQVPKGALVAVVGPVGCGKSSLVSALLGEMEKLEGKVHMKGSVAYVPQQAWIQNCTLQENVLFGKALNPKRYQQTLEACALLADLEMLPGGDQTEIGEKGINLSGGQRQRVSLARAVYSDADIFLLDDPLSAVDSHVAKHIFDHVIGPEGVLAGKTRVLVTHGISFLPQTDFIIVLADGQVSEMGPYPALLQRNGSFANFLCNYAPDEDQGHLEDSWTALEGAEDKEALLIEDTLSNHTDLTDNDPVTYVVQKQFMRQLSALSSDGEGQGRPVPRRHLGPSEKVQVTEAKADGALTQEEKAAIGTVELSVFWDYAKAVGLCTTLAICLLYVGQSAAAIGANVWLSAWTNDAMADSRQNNTSLRLGVYAALGILQGFLVMLAAMAMAAGGIQAARVLHQALLHNKIRSPQSFFDTTPSGRILNCFSKDIYVVDEVLAPVILMLLNSFFNAISTLVVIMASTPLFTVVILPLAVLYTLVQRFYAATSRQLKRLESVSRSPIYSHFSETVTGASVIRAYNRSRDFEIISDTKVDANQRSCYPYIISNRWLSIGVEFVGNCVVLFAALFAVIGRSSLNPGLVGLSVSYSLQVTFALNWMIRMMSDLESNIVAVERVKEYSKTETEAPWVVEGSRPPEGWPPRGEVEFRNYSVRYRPGLDLVLRDLSLHVHGGEKVGIVGRTGAGKSSMTLCLFRILEAAKGEIRIDGLNVADIGDPILFSGTLRMNLDPFGSYSEEDIWWALELSHLHTFVSSQPAGLDFQCSEGGENLSVGQRQLVCLARALLRKSRILVLDEATAAIDLETDNLIQATIRTQFDTCTVLTIAHRLNTIMDYTRVLVLDKGVVAEFDSPANLIAARGIFYGMARDAGLA
For B1, the Km was determined as 25.6 µM in data set [1]; 248 µM in data set [2]; 776 µM in data set [3]; 5.7 µM in data set [4]; 5.3 µM in data set [5].

The values above are taken from ChEMBL document CHEMBL2074270, “Transport of amphipathic anions by human multidrug resistance protein 3” (Cancer Res, 2000).
